From paper PMC9784857, “In Vitro Characterization of a Nuclear Receptor-like Domain of the Xylanase Regulator 1 from Trichoderma reesei” (Journal of Fungi, 2022) come the findings set out here.

Data set [1] addresses T1, Xyr1 (Xylanase regulator 1) (Trichoderma reesei, UniProt G0RLE8).
T1 construct: full coding region, codon-optimised synthetic gene, C-terminal His6 tag (not reported cut), pET28a (pTS1), E. coli BL21(DE3)pLysS; 105 kDa; monomer and homodimer
Put plainly: far-UV circular dichroism, ligand-induced conformational change. To be noted: 250 nM protein, buffer A (50 mM Tris, 200 mM NaCl, 50 mM NaH2PO4, 10% glycerol) pH 7.5, 22 °C; sugar 40-1000 nM; no added DNA; proposed allosteric. Format: binding. An excerpt:
far-UV circular dichroism, ligand-induced conformational change on Xyr1 (Xylanase regulator 1) | All three carbohydrates cause a change in the Xyr1 secondary structure
(CD spectra are sensitive to the conformation of chiral molecules.)

The target of data set [2] is T1, Xyr1 (Xylanase regulator 1). The data set is described as above. Format: binding. To be noted: 250 nM protein, buffer A (50 mM Tris, 200 mM NaCl, 50 mM NaH2PO4, 10% glycerol) pH 7.5, 22 °C, sugar 40-1000 nM, no added DNA, proposed allosteric.
In data set [3] the target is Xylanase regulator 1 with the A824V mutation (Xyr1_(A824V)) (Trichoderma reesei) (UniProt G0RLE8). The data set is described as follows: native gel or EMSA; blue native PAGE (BN-PAGE), 200 nM of each protein, non-denaturing conditions; second dimension SDS-PAGE, identity confirmed by Western blot; also run with target DNA or carbohydrates as controls (Figure S1). (Mobility shift assays separate free from complexed probe on a gel.)

The target of another data set is T2, Xyr1A824V (Trichoderma reesei, UniProt G0RLE8 1-920, A804V).
T2 sequence: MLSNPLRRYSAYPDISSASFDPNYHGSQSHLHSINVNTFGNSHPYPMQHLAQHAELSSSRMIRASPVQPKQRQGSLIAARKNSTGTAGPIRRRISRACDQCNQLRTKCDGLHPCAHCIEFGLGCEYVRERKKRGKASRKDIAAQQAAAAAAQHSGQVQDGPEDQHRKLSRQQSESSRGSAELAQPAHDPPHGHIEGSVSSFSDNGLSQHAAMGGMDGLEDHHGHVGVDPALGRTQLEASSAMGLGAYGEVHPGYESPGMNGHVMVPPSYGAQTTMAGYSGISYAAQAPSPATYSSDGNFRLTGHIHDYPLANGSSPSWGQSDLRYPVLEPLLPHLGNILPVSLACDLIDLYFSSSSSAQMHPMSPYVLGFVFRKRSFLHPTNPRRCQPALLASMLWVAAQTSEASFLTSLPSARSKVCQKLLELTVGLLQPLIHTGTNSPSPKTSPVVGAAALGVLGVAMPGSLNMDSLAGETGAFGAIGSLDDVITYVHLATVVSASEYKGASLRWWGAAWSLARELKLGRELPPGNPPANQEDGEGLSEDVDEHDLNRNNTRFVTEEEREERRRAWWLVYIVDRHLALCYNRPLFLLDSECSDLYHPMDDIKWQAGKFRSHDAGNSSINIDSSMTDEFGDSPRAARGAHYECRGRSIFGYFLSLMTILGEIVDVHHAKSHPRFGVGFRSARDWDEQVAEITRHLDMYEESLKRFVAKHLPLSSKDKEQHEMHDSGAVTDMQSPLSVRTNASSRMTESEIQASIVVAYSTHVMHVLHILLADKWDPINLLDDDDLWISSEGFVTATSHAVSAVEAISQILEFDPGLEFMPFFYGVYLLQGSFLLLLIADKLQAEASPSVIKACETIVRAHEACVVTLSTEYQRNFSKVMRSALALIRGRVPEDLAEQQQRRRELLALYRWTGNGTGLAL
Put plainly: CD spectroscopy titration (222 nm); no carbohydrate; Engel fit, n = 2; Buffer A: 50 mM Tris, 200 mM NaCl, 50 mM NaH2PO4, 10% glycerol, pH 7.5, 22 °C; CD: 250 nM protein, DNA 0-900 nM; EMSA: 15 ng probe, 10 min, 0.2 µg/µL p(dIdC) plus unspecific duplex CKT067/CKT068. To be noted: protein: recombinant; tags: C-terminal His6; chain copies: 2; blunt.

The target of data set [4] is T3, Xyr1 (Xylanase regulator 1) (Trichoderma reesei, UniProt G0RLE8 1-920).
T3 sequence: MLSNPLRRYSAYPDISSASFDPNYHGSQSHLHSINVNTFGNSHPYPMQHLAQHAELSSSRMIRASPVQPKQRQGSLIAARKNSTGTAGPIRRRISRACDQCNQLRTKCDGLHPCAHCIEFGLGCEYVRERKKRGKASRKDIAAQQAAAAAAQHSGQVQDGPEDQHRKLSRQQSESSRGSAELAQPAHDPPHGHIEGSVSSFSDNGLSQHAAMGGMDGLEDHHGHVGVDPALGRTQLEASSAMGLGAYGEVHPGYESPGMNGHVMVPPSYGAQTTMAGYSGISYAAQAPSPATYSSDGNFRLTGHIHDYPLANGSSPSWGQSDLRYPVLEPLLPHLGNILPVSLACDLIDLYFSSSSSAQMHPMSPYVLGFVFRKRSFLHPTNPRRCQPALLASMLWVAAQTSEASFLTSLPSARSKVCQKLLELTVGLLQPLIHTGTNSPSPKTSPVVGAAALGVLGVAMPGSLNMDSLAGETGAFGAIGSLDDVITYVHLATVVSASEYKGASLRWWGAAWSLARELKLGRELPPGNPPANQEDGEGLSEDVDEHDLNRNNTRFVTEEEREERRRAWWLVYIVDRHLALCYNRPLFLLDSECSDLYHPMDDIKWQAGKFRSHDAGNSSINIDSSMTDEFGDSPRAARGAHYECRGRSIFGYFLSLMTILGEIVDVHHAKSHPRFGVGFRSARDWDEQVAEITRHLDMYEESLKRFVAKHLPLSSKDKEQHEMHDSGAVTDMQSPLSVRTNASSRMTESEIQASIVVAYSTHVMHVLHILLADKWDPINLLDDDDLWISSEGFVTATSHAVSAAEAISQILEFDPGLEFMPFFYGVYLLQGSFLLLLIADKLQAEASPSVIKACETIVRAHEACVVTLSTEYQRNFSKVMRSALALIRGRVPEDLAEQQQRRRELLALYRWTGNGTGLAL
Described as above. To be noted: protein: recombinant; tags: C-terminal His6; chain copies: 2; blunt.

Data set [5] deals with the molecule itself. Put plainly: native gel or EMSA; blue native PAGE (BN-PAGE), 200 nM of each protein, non-denaturing conditions; second dimension SDS-PAGE, identity confirmed by Western blot; also run with target DNA or carbohydrates as controls (Figure S1).

For `O=P(O)(O)OC[C@H]1OC(O)[C@H](O)[C@@H](O)[C@@H]1O` (stereo partly drawn) [D-glucose-6-phosphate], in data set [1], the “loss of α-helix structures” value worked out at 21%.

Regarding `OC1OC[C@@H](O)[C@H](O)[C@H]1O` (stereo partly drawn) [D-xylose], the “loss of α-helix structures (up to)” value in data set [2] is recorded as 31%.

On to `OC[C@H]1O[C@@H](O[C@H]2C(O)O[C@H](CO)[C@@H](O)[C@@H]2O)[C@H](O)[C@@H](O)[C@@H]1O` (stereo partly shown) [sophorose], for which the “loss of α-helix structures (up to)” value in data set [2] (spectra not shown, stated highly similar to D-xylose) is recorded as 31%.

Broadly, the stoichiometry N is the number of molecules, sites or subunits per partner or assembly. As to “Xylanase regulator 1 with the A824V mutation (Xyr1_(A824V)) (from UniProt G0RLE8 1-920)”, the stoichiometry N in data set [3] stood at 2.

B1: xyn1 URR fragment (-430 to -396), Pxyn1f/Pxyn1r (dsDNA)
DNA 1: TTGGCAGGCTAAATGCGACATCTTAGCCGGATGCA
DNA 2: TGCATCCGGCTAAGATGTCGCATTTAGCCTGCCAA
As usually defined, the Kd is the free concentration of one partner at which half of the binding sites on the other are occupied at equilibrium, for simple one-to-one binding. Take B1: the Kd with Xyr1A824V was found to be 523 nM; in data set [4], 128 nM.

B2: Xylanase regulator 1 (Xyr1), wild type (natural protein)
chain: MLSNPLRRYSAYPDISSASFDPNYHGSQSHLHSINVNTFGNSHPYPMQHLAQHAELSSSRMIRASPVQPKQRQGSLIAARKNSTGTAGPIRRRISRACDQCNQLRTKCDGLHPCAHCIEFGLGCEYVRERKKRGKASRKDIAAQQAAAAAAQHSGQVQDGPEDQHRKLSRQQSESSRGSAELAQPAHDPPHGHIEGSVSSFSDNGLSQHAAMGGMDGLEDHHGHVGVDPALGRTQLEASSAMGLGAYGEVHPGYESPGMNGHVMVPPSYGAQTTMAGYSGISYAAQAPSPATYSSDGNFRLTGHIHDYPLANGSSPSWGQSDLRYPVLEPLLPHLGNILPVSLACDLIDLYFSSSSSAQMHPMSPYVLGFVFRKRSFLHPTNPRRCQPALLASMLWVAAQTSEASFLTSLPSARSKVCQKLLELTVGLLQPLIHTGTNSPSPKTSPVVGAAALGVLGVAMPGSLNMDSLAGETGAFGAIGSLDDVITYVHLATVVSASEYKGASLRWWGAAWSLARELKLGRELPPGNPPANQEDGEGLSEDVDEHDLNRNNTRFVTEEEREERRRAWWLVYIVDRHLALCYNRPLFLLDSECSDLYHPMDDIKWQAGKFRSHDAGNSSINIDSSMTDEFGDSPRAARGAHYECRGRSIFGYFLSLMTILGEIVDVHHAKSHPRFGVGFRSARDWDEQVAEITRHLDMYEESLKRFVAKHLPLSSKDKEQHEMHDSGAVTDMQSPLSVRTNASSRMTESEIQASIVVAYSTHVMHVLHILLADKWDPINLLDDDDLWISSEGFVTATSHAVSAAEAISQILEFDPGLEFMPFFYGVYLLQGSFLLLLIADKLQAEASPSVIKACETIVRAHEACVVTLSTEYQRNFSKVMRSALALIRGRVPEDLAEQQQRRRELLALYRWTGNGTGLAL
For the molecule B2, in data set [5], the “stoichiometry N” value is 2.
